Source: US8802376B2, “Methods for identifying candidate cytotoxic antibody molecules” (Agency for Science, Technology and Research, priority 2010, dated 2014)

Assays:
[1] = test system: human embryonic stem cells (hESC); test: inhibition of mAb84 binding to hESC by soluble trisaccharide; assay type: cell-based; details: trisaccharide 0.4 mM, 0.8 mM, 2 mM, 4 mM; mAb84 (25 pM, 5 μg) in 200 μl, 2×10^5 hESC
Method: (§1) The importance of the trisaccharide Fucα1-2Galβ1-3GlcNA in mediating the cytotoxic interaction of mAb84 on human embryonic stem cells (hESC) was investigated by assessing the ability of synthetic soluble trisaccharide Fucα1-2Galβ1-3GlcNA to (i) inhibit the binding of mAb84 to hESC and (ii) reduce the cytotoxic effect of mAb84 on hESC.
(§2) mAb84 (25 pM, 5 μg) in 200 μl volume was added to 2×10^5 hESC and preincubated for 15 minutes prior to addition of synthetic soluble trisaccharide Fucα1-2Galβ1-3GlcN (in concentrations of 0 (control), 0.4 mM, 0.8 mM, 2 mM, 4 mM).

[2] = test system: human embryonic stem cells (hESC); test: relative viability of hESC in response to mAb84 with added trisaccharide; assay type: cell-based
Method: as §1, §2

IPSCs = details: WO/2010/033084; cited from earlier work
day 22 EB = test: mAb 84-mediated killing on day 22 EB; assay type: cell-based, human
[3] = target: T1, PODXL over-expressed in HEK and COS cells (Homo sapiens, UniProt O00592); test: Western blot of COS and HEK expressed PODXL probed with antibodies; assay type: binding; details: SDS-PAGE
T1 construct: expressed in transfected cells; host or cells: HEK or COS cells
T1 sequence (O00592 23-558): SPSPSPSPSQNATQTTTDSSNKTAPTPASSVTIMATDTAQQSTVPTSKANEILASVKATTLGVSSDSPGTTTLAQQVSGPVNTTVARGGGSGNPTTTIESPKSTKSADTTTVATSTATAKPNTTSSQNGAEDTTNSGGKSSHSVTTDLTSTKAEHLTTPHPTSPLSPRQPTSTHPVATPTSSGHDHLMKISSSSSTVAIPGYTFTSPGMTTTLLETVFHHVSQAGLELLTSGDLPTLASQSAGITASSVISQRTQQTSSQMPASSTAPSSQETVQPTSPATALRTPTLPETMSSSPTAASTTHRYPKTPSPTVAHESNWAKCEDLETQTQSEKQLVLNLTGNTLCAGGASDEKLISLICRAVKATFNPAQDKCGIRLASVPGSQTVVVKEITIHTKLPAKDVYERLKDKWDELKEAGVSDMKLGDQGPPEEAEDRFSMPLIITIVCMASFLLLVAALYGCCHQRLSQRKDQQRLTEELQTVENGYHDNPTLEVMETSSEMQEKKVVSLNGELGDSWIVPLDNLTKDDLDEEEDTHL
Text: (§3) The gene encoding PODXL was isolated and sequenced from hESC. The gene was cloned into vectors and expressed either unglycosylated (in vitro TnT) or in mammalian cells (HEK or COS cells which are capable of glycosylating the expressed protein).
(§4) The proteins obtained were then resolved on SDS-PAGE, Western blotted and probed with antibodies. The antibodies used were commercially available anti-PODXL antibodies (monoclonal and polyclonal) and mAb 84. […] For COS and HEK expressed PODXL, only monoclonal anti-PODXL detected both the expressed PODXL and PODXL from hESC.

[4] = Printed Glycan Array V4.1 (Consortium for Functional Glycomics) binding
Method: Buffers: • TSM=20 mM Tris-HCl, pH 7.4 150 mM NaCl, 2 mM CaCl2, 2 mM MgCl2 • TSM Wash Buffer (TSMW)=TSM Buffer+0.05% Tween-20 • TSM Binding Buffer (TSMBB)=TSM buffer+0.05% Tween 20+1% BSA
Protocol: • 1. Make working stocks of washing buffers (TSM, TSM Wash Buffer, and H2O) or collect reagents and bring to room temperature if they have been in the refrigerator. • 1.1. Buffer (A) TSM-20 mM Tris-HCl, pH 7.4 150 mM NaCl, 2 mM CaCl2, 2 mM MgCl2 • 1.2. Buffer (B) TSM Wash Buffer (TSMW)—TSM Buffer+0.05% Tween-20 • 1.3. Buffer (C) TSM Binding Buffer (TSMBB)—TSM buffer+0.05% Tween 20+1% BSA • 1.4. dH20 • 2. Prepare 100 μl of sample by diluting antibody in TSMBB or appropriate Binding Buffer based on properties of Antibody to a final concentration of 5-50 μg/ml or an appropriate concentration required for the analysis. • mAb84 antibodies were added at a concentration of 50 μg/ml. • mAb85 antibodies were added at a concentration of 50 μg/ml. • 3. Remove slide(s) from dessicator and label slide with sample name near barcode, outside of the black marks. • 4. […]
mAb84 antibodies were contacted with the glycans. […] Bound antibodies were detected using AlexaFluor-488-labeled secondary antibodies as described above. The secondary antibodies were then detected using a fluorescence scanner. Binding is presented in relative fluorescence units (RFU). […]

hESC = hESC treated with mAb 84 prior to transplantation into SCID mice; cited from earlier work
FGF2-starved hESC = test: mAb 84-mediated killing on FGF2-starved hESC; assay type: cell-based, human
[5] = target: T2, PODXL on the surface of hESCs (Homo sapiens, UniProt O00592); test: kinetics of mAb84 binding to PODXL on the surface of hESCs
T2 construct: mAb 84 only detected hESC—PODXL but not expressed PODXL; endogenous in cells; host or cells: hESC (HES-3)
T2 sequence (O00592 23-558): T1 sequence (O00592 23-558)

[6] = test system: undifferentiated human embryonic stem cells (hESC); details: cited from earlier work
PODXL from hESC (HES-3) = target: T3, PODXL from hESC (HES-3) (Homo sapiens, UniProt O00592); test: Western blot of PODXL from hESC probed with antibodies; assay type: binding; details: SDS-PAGE
T3 construct: mAb 84 only detected hESC—PODXL but not expressed PODXL; endogenous in cells; host or cells: hESC (HES-3)
T3 sequence (O00592 23-558): T1 sequence (O00592 23-558)
Text: as §3, §4
In either COS or HEK cells, PODXL is glycosylated (and so has a higher MW). However the band is lower than PODXL expressed in hESC (HES-3). Also, mAb 84 only detected hESC—PODXL but not expressed PODXL. This led to the conclusion that there is a stem cell-specific modification (glycosylation) to PODXL. Without being bound by theory, it appears that when PODXL is glycosylated by stem cells the resulting glycan structure is different that of PODXL glycosylated by other cells.

day 8 embyroid bodies = test: mAb 84 binding reactivity to embryoid bodies; assay type: cell-based, human
[7] = target: T4, unglycosylated PODXL (in vitro transcription and translation (TnT)) (Homo sapiens, UniProt O00592); test: Western blot of in vitro TnT-expressed PODXL probed with antibodies; assay type: binding; details: SDS-PAGE
T4 construct: made in house; host or cells: in vitro transcription and translation (cell-free)
T4 sequence (O00592 23-558): T1 sequence (O00592 23-558)
Text: as §3, §4

Molecule: CC(=O)N[C@H]1C(O)O[C@H](CO)[C@@H](O)[C@@H]1O[C@@H]1O[C@H](CO)[C@H](O)[C@H](O)[C@H]1O[C@@H]1O[C@@H](C)[C@@H](O)[C@@H](O)[C@@H]1O (stereo partly shown) [Fucα1-2Galβ1-3GlcNAc]
- inhibition of mAb84 binding to hESC [1]: dose dependently inhibit
- cytotoxic effect of mAb84 on hESC (relative viability) ([2]; increasing concentrations of trisaccharide 0.4 mM, 0.8 mM, 2 mM, 4 mM): reduction
- cytotoxic effect of mAb84 on hESC (relative viability) ([2]; trisaccharide 2 mM): abolished
- cytotoxic effect of mAb84 on hESC (relative viability) ([2]; trisaccharide 4 mM): abolished

B1: mAb84: IgM monoclonal antibody which specifically binds and kills undifferentiated human embryonic stem cells; antigen is PODXL (antibody, V domains shown)
VH: QVQLQQSGGGLVQPGGSMKLSCVASGFTFSNYWMNWVRQSPEKGLEWVAEIRLKSNNYATHYAESVKGRFTISRDDSKSSVYLQMNNLRAEDTGIYYCTGERAWGQGTTVTVSS
VL: DIELTQSPAIMSASPGEKVTMTCSASSSVNYMYWYQQKPGSSPRLLIYDTSNLASGVPVRFSGSGSGTSYSLTISRMEAEDAATYYCQQWSSYPYTFGGGTKLEIKR
modifications: Synthetic sequenceVH chain of mAb 84; Synthetic sequence VL chain of mAb 84
notes: antigen is PODXL
- cytotoxicity against IPSCs (IPSCs): cytotoxic
- mAb 84-mediated killing (day 22 EB): loss
- detection of expressed (glycosylated) PODXL [3]: does not bind
- relative binding (binding of mAb84 divided by binding of mAb85 to the same glycans) ([4]; 9 glycans containing Fucα1-2Galβ1-3GlcNAc, RFU values): at least 37 times
- binding to glycans in the glycan array ([4]; 465 glycans, V4.1 array, Alexa488 labeled secondary antibody): selectively bind
- tumour formation (hESC): absence of tumour formation
- mAb 84-mediated killing (FGF2-starved hESC): decrease
- koff [5]: 0.0029 s⁻¹
- kon [5]: 7.1 e4 M^−1 s^−1
- cytotoxicity against undifferentiated hESCs ([6]; WO 2007/102787): cytotoxic
- incubation time to cell death of undifferentiated hESC ([6]; undifferentiated hESC): ≤ 30 min
- detection of PODXL from hESC (PODXL from hESC (HES-3)): detected
- binding reactivity compared to undifferentiated hESC (day 8 embyroid bodies): reduced
- detection of unglycosylated PODXL [7]: did not detect
- detection of unglycosylated PODXL ([7]; listed as mAb 84): does not bind
